In patent US20210395394A1:

The binders below were run against Pan-species-specific antigen Plasmodium Lactate DeHydrogenase (Pan-PLDH) protein (assay: indirect ELISA at four coating concentrations, KD calculated from half-maximal OD).

| Binder | Kd [nM] |
| --- | --- |
| Mutation 1-41 (antibody, mouse IgG2b, kappa, V domains shown) VH: QVQLQQPGAELVRPGASVKLSCKASGYSFTNYWMNWVKQRPGQGLEWIGMIHPSESETRVNQKFKDKATLTVDKSSSTAYMQLSSLTAEDSAVYYCAKSGEFYTTYFDYWGQGTTLTVSS VL: DIQLTQSPASLSASVGETVTITCRGTGNIHNYLAWYQQKQGKSPQLLVYNARTLADGVPSRFSGSGSGTQYSLKINSLQPEDFGSYYCQSFWSTYTFGGGTKLEIKR | 0.743 |
| Mutation 1-42 (antibody, mouse IgG2b, kappa, V domains shown) VH: QVQLQQPGAELVRPGASVKLSCKASGYSFTNYWMNWVKQRPGQGLEWIGMIHPSDSETRINQKFKDKATLTVDKSSSTAYMQLSSLTAEDSAVYYCARSGDFYTSYFDYWGQGTTLTVSS VL: DIQLTQSPASLSASVGETVTITCRGTGNIHNYLAWYQQKQGKSPQLLVYNAKTIADGVPSRFSGSGSGTQYSLKINSLQPEDFGSYYCQTFWSTYTFGGGTKLEIKR | 0.545 |
| Mutation 1-53 (antibody, mouse IgG2b, kappa, V domains shown) VH: QVQLQQPGAELVRPGASVKLSCKASGSSFTNYWMNWVKQRPGQGLEWIGMIHPSESETRVNQKFKDKATLTVDKSSSTAYMQLSSLTAEDSAVYYCARSGDFYTSYFDYWGQGTTLTVSS VL: DIQLTQSPASLSASVGETVTITCRGTGNIHNYLAWYQQKQGKSPQLLVYNARTIADGVPSRFSGSGSGTQYSLKINSLQPEDFGSYYCQYFWSTYTFGGGTKLEIKR | 0.717 |
| Mutation 1-54 (antibody, mouse IgG2b, kappa, V domains shown) VH: QVQLQQPGAELVRPGASVKLSCKASGTSFTNYWMNWVKQRPGQGLEWIGMIHPSDSETRINQKFKDKATLTVDKSSSTAYMQLSSLTAEDSAVYYCARSGDFYTYYFDYWGQGTTLTVSS VL: DIQLTQSPASLSASVGETVTITCRGTGNIHNYLAWYQQKQGKSPQLLVYNAKTVADGVPSRFSGSGSGTQYSLKINSLQPEDFGSYYCQSFWSTYTFGGGTKLEIKR | 0.633 |
| Mutation 1-52 (antibody, mouse IgG2b, kappa, V domains shown) VH: QVQLQQPGAELVRPGASVKLSCKASGYSFTNYWMNWVKQRPGQGLEWIGMIHPSESETRLNQKFKDKATLTVDKSSSTAYMQLSSLTAEDSAVYYCAKSGEFYTTYFDYWGQGTTLTVSS VL: DIQLTQSPASLSASVGETVTITCRGSGNIHNYLAWYQQKQGKSPQLLVYNARTVADGVPSRFSGSGSGTQYSLKINSLQPEDFGSYYCQSFWSTYTFGGGTKLEIKR | 0.659 |
| Mutation 1-55 (antibody, mouse IgG2b, kappa, V domains shown) VH: QVQLQQPGAELVRPGASVKLSCKASGYSFTNYWMNWVKQRPGQGLEWIGMIHPSDSETRLNQKFKDKATLTVDKSSSTAYMQLSSLTAEDSAVYYCARSGDFYTTYFDYWGQGTTLTVSS VL: DIQLTQSPASLSASVGETVTITCRGSGNIHNYLAWYQQKQGKSPQLLVYNAKTIADGVPSRFSGSGSGTQYSLKINSLQPEDFGSYYCQYFWSTYTFGGGTKLEIKR | 0.559 |
| WT 1-1 (antibody, mouse IgG2b, kappa, V domains shown) VH: QVQLQQPGAELVRPGASVKLSCKASGTSFTNYFMNWVKQRPGQGLEWIGMINPSDSETRINQKFKDKATLTVDKSSSTAYMQLSSLTAEDSAVYYCARSGDFYTSYWDYWGQGTTLTVSS VL: DIQLTQSPASLSASVGETVTITCRGTGNIHNYIAWYQQKQGKSPQLLVYNAKTLADGVPSRFSGSGSGTQYSLKINSLQPEDFGSYYCQTFWSSYTFGGGTKLEIKR | 0.759 |

Continued by falling Kd, values first:

| Kd [nM] | Binder |
| --- | --- |
| 0.53 | Mutation 1-43 (antibody, mouse IgG2b, kappa, V domains shown) VH: QVQLQQPGAELVRPGASVKLSCKASGTSFTNYWMNWVKQRPGQGLEWIGMIHPSDSETRLNQKFKDKATLTVDKSSSTAYMQLSSLTAEDSAVYYCARSGDFYTYYFDYWGQGTTLTVSS VL: DIQLTQSPASLSASVGETVTITCRGSGNIHNYLAWYQQKQGKSPQLLVYNAKTVADGVPSRFSGSGSGTQYSLKINSLQPEDFGSYYCQSFWSTYTFGGGTKLEIKR |
| 0.526 | Mutation 1-51 (antibody, mouse IgG2b, kappa, V domains shown) VH: QVQLQQPGAELVRPGASVKLSCKASGSSFTNYWMNWVKQRPGQGLEWIGMIHPSESETRINQKFKDKATLTVDKSSSTAYMQLSSLTAEDSAVYYCAKSGEFYTYYFDYWGQGTTLTVSS VL: DIQLTQSPASLSASVGETVTITCRGTGNVHNYLAWYQQKQGKSPQLLVYNARTLADGVPSRFSGSGSGTQYSLKINSLQPEDFGSYYCQTFWSTYTFGGGTKLEIKR |
| 0.454 | Mutation 1-47 (antibody, mouse IgG2b, kappa, V domains shown) VH: QVQLQQPGAELVRPGASVKLSCKASGTSFTNYWMNWVKQRPGQGLEWIGMIHPSESETRVNQKFKDKATLTVDKSSSTAYMQLSSLTAEDSAVYYCAKSGDFYTSYFDYWGQGTTLTVSS VL: DIQLTQSPASLSASVGETVTITCRGSGNLHNYLAWYQQKQGKSPQLLVYNARTLADGVPSRFSGSGSGTQYSLKINSLQPEDFGSYYCQTFWSTYTFGGGTKLEIKR |
| 0.415 | Mutation 1-45 (antibody, mouse IgG2b, kappa, V domains shown) VH: QVQLQQPGAELVRPGASVKLSCKASGYSFTNYWMNWVKQRPGQGLEWIGMIHPSESETRINQKFKDKATLTVDKSSSTAYMQLSSLTAEDSAVYYCARSGEFYTYYFDYWGQGTTLTVSS VL: DIQLTQSPASLSASVGETVTITCRGSGNVHNYLAWYQQKQGKSPQLLVYNARTIADGVPSRFSGSGSGTQYSLKINSLQPEDFGSYYCQSFWSTYTFGGGTKLEIKR |
| 0.342 | Mutation 1-49 (antibody, mouse IgG2b, kappa, V domains shown) VH: QVQLQQPGAELVRPGASVKLSCKASGSSFTNYWMNWVKQRPGQGLEWIGMIHPSDSETRLNQKFKDKATLTVDKSSSTAYMQLSSLTAEDSAVYYCAKSGDFYTTYFDYWGQGTTLTVSS VL: DIQLTQSPASLSASVGETVTITCRGTGNLHNYLAWYQQKQGKSPQLLVYNAKTVADGVPSRFSGSGSGTQYSLKINSLQPEDFGSYYCQTFWSTYTFGGGTKLEIKR |
| 0.336 | Mutation 1-48 (antibody, mouse IgG2b, kappa, V domains shown) VH: QVQLQQPGAELVRPGASVKLSCKASGYSFTNYWMNWVKQRPGQGLEWIGMIHPSDSETRINQKFKDKATLTVDKSSSTAYMQLSSLTAEDSAVYYCAKSGDFYTYYFDYWGQGTTLTVSS VL: DIQLTQSPASLSASVGETVTITCRGSGNLHNYLAWYQQKQGKSPQLLVYNAKTLADGVPSRFSGSGSGTQYSLKINSLQPEDFGSYYCQYFWSTYTFGGGTKLEIKR |
| 0.332 | Mutation 1-46 (antibody, mouse IgG2b, kappa, V domains shown) VH: QVQLQQPGAELVRPGASVKLSCKASGTSFTNYWMNWVKQRPGQGLEWIGMIHPSESETRLNQKFKDKATLTVDKSSSTAYMQLSSLTAEDSAVYYCARSGEFYTTYFDYWGQGTTLTVSS VL: DIQLTQSPASLSASVGETVTITCRGTGNLHNYLAWYQQKQGKSPQLLVYNARTVADGVPSRFSGSGSGTQYSLKINSLQPEDFGSYYCQYFWSTYTFGGGTKLEIKR |
| 0.318 | Mutation 1-44 (antibody, mouse IgG2b, kappa, V domains shown) VH: QVQLQQPGAELVRPGASVKLSCKASGSSFTNYWMNWVKQRPGQGLEWIGMIHPSDSETRVNQKFKDKATLTVDKSSSTAYMQLSSLTAEDSAVYYCARSGEFYTSYFDYWGQGTTLTVSS VL: DIQLTQSPASLSASVGETVTITCRGTGNVHNYLAWYQQKQGKSPQLLVYNAKTLADGVPSRFSGSGSGTQYSLKINSLQPEDFGSYYCQYFWSTYTFGGGTKLEIKR |
| 0.0879 | Mutation 1-50 (antibody, mouse IgG2b, kappa, V domains shown) VH: QVQLQQPGAELVRPGASVKLSCKASGTSFTNYWMNWVKQRPGQGLEWIGMIHPSDSETRVNQKFKDKATLTVDKSSSTAYMQLSSLTAEDSAVYYCAKSGEFYTSYFDYWGQGTTLTVSS VL: DIQLTQSPASLSASVGETVTITCRGSGNVHNYLAWYQQKQGKSPQLLVYNAKTIADGVPSRFSGSGSGTQYSLKINSLQPEDFGSYYCQSFWSTYTFGGGTKLEIKR |
